Some results are limits rather than exact numbers.

The assay concerns the target human growth hormone receptor on IM-9 cells (human) (UniProt P10912). Nature of the assay: cell-based or functional assay.
Chain of UniProt P10912 (P10912 19-638): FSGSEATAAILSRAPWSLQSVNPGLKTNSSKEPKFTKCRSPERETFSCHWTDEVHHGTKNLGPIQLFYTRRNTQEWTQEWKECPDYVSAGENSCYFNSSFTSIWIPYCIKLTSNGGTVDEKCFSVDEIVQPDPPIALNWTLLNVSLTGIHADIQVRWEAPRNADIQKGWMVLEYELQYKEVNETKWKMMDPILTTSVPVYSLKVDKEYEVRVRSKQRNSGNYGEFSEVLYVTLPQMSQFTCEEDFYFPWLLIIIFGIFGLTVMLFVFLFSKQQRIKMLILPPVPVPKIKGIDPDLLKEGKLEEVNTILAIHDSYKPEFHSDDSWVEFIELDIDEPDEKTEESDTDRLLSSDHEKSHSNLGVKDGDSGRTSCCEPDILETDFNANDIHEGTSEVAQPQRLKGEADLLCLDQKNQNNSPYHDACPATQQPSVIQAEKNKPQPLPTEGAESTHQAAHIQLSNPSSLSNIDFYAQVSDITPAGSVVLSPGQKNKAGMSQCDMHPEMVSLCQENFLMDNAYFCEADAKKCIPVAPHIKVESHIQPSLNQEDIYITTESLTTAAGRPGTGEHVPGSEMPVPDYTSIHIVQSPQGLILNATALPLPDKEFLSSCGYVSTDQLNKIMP
As for “N-6His A155pAF hGH (from UniProt P01241 27-217) (ligand)”, the EC50 (nM) of STAT5 phosphorylation in IM-9 cells came out at 1.3 nM.
The value for “N-6His E88pAF hGH (from UniProt P01241 27-217) (ligand)” was 0.9 nM; that for “N-6His F92pAF hGH (from UniProt P01241 27-217) (ligand)” was 0.8 nM; that for “N-6His F139pAF hGH (from UniProt P01241 27-217) (ligand)” was 3.3 nM.
The value for “N-6His G131pAF hGH (from UniProt P01241 27-217) (ligand)” was 0.8 nM; that for “N-6His G136pAF hGH (from UniProt P01241 27-217) (ligand)” was 1.4 nM.
The value for “N-6His K140pAF hGH (from UniProt P01241 27-217) (ligand)” was 2.7 nM; that for “N-6His N99pAF hGH (from UniProt P01241 27-217) (ligand)” was 8.5 nM.
With “N-6His P133pAF hGH (from UniProt P01241 27-217) (ligand)”, the EC50 (nM) of STAT5 phosphorylation in IM-9 cells worked out at 1 nM.
The value for “N-6His Q91pAF hGH (from UniProt P01241 27-217) (ligand)” was 2 nM; that for “N-6His R134pAF hGH (from UniProt P01241 27-217) (ligand)” was 0.9 nM.
The substance “N-6His S95pAF hGH (from UniProt P01241 27-217) (ligand)” came in with an EC50 (nM) of STAT5 phosphorylation in IM-9 cells of 16.7 nM.
The value for “N-6His T135pAF hGH (from UniProt P01241 27-217) (ligand)” was 0.9 nM; that for “N-6His Y103pAF hGH (from UniProt P01241 27-217) (ligand)” was 130000 nM.
The value for “N-6His Y111pAF hGH (from UniProt P01241 27-217) (ligand)” was 1 nM.
With “N-6His Y143pAF hGH (from UniProt P01241 27-217) (ligand)”, the EC50 (nM) of STAT5 phosphorylation in IM-9 cells was 0.8 nM.
In the case of “rat GH WT (from UniProt P01244 27-216) (ligand)” it was more than 200000 nM.

The values are drawn from patent US20150031864A1.
